# Measurements as given in PMC6328183 (2019).
# Biological target: FuBc protein (recombinant protein of the fusion loop and Bc loop of domain II of dengue envelope protein with … (DENV-2 (of the template structure PDB …, UniProt P12823)))
# Assay: SPR
binder,measurement,value
"3IXY scFv antibody (VH and VL of the anti-fusion loop dengue E53 Fab, PDB 3IXY, joined by a (G4S)3 linker) (scFv, V domains shown) VH: EVKLVESGGGLVLPGGSLRLSCATSGFTFTDYYMTWVRQPPGKALEWLGFIGNKANDYTTEYSASVKGRFTISRDDSQSILYLQMSTLRAEDRATYYCATVYGNYPYFDVWGAGTTVAVSS VL: QIVLTQSPAIMSASPGEKVTMTCSASSSVSYMHWYQQKSGTSPKIWIYESSKLASGVPVRFSGSGSGTSYSLTISSMEAEDVATYYCQQWSSHPHPLTFGAGTKLELK",koff,0.0077 s⁻¹
